Experimental data taken from the DeepSol protein solubility set.

Assay: soluble on expression in E. coli; label from the status in PepcDB or PDB records

Question: Which “soluble on expression in E. coli” value does the source give for “VEHEQQVTESPSLASVPTADELFDFHIGDRVLIGNVQPGILRFKGETSFAKGFWAGVELDKPEGNNNGTYDGIAYFECKEKHGIFAPPQKISHIPENFDDYVDINEDED” here?
Answer: The value was “soluble”.

Question: For “MSLFVSLSEKKKFLTWLVNTAPFGRREVLWILNYLLTHDAILNNVHFVENVEKTDRGIRVVADGLGKEPLLLFIQAQEFTDPEQIFHEIRMNWRKALYLECVFPEAWQTSQYLSVLEDNPFAPWNEQVDQEVARAIDQYFKQEEQTQRMALLKAQIDDALETGNKEAFLELSDELNRLKQQEGHHHHHH”, which “soluble on expression in E. coli” value is on record?
Answer: The value was “soluble”.

Question: With “IPEEGGDELGAMARTLSLFRESAIEKKKLEDEAERQRRTIAAALEVISDGFVLYDSEDRILVANSKYCEIFPSHKPNTLRGRSFREIVEQNLEMGQVDLEGKSPQEWVDERVRLHRDPAGLVDEKRFGDKWVRISKRKIPD” as the sequence, how does the “soluble on expression in E. coli” value read?
Answer: The value was “not soluble”.

Question: With “MSLSTFRSIEWKKDKLVLLDQRYLPEKTLYLELKTVDEVARAIKEMTVRGAPAIGVAAAYGMVLCVQKLSKNDDLIRELQKADDLLRASRPTAVNLFWALDRMKKIWQGFNGSLEDLKMILEKEATDIEREDVEINKQIAKNGVELVPFGAKIIHHCNTGSLATVDYGTALGVIRYAHEIGKKIHVFLDETRPRLQGARLSAWEMKELGIPHTIIVDGASGLVMKKFKIDLALVGADRIAANGDTANKIGTYNLAIVAKYHNVPLYVVAPTSTIDLKTPAGQDIPIEERSADEIRCVGNSQVAPQESPVFNPAFDVTPAELISGIITEKGIVYPPFKENLRKLFESAEGHHHHHH” as the sequence, how does the “soluble on expression in E. coli” value read?
Answer: The value was “soluble”.

Question: Which “soluble on expression in E. coli” value does the source give for “MEITDPGDFRQRIETSFARQGVVQAINAEISRIEHRLVEIELPFHEKLTQQHGILHAGVIAAGLDTACTYAAYTIIEPEASLLTIEFKVNLMSPGRGERFLFRGEIIKPGNNLIVADGRAYALSDGPAKLIASMTGTMMVVKGREDITGLEHHHHHH” here?
Answer: The value was “soluble”.

Question: For “MNVETIREYCLSKKGVTESFPFDDVSLVMKVLDKMFALIDLEGANSISLKCDPERAIELREHYAGIEGAYHFNKKYWNGVYFDRDVDDKLIKELVDHSYEEVIKKFTKKLRAEYDALP”, which “soluble on expression in E. coli” value is on record?
Answer: Its value is “not soluble”.

Question: Which “soluble on expression in E. coli” value does the source give for “MAHHHHHHMDSPTEFSCGTQWDDDRRGEEPLLPELTLHGCGLRNLSLIVRGAQGAVYSAHDENGNRFAVKRLFTQRSDFGIRGVSEGALREATLLTLVRQEMEKLVHDTAFDVVRLQGVVEAPYKELCLILEYCSLDLSQVVVKSKRHTRSFPLVAEGPQVRCPVLSNMGVVRYLLRGILQILNNLHVNCRIIHRDVKLSNFLVRGDGSVRLSDFGSARLLHETVEEKEAAECVTSDPQDEDEVDCSDPFSHSCEGYTPAAQRTTLIYQAPECLLGERTYTTAVDVWAVGIVFAEILLQRHLFRSVNELTLISDIWRLLGTPSTKGEDPNIQGTNGVTFAAPTEPTVDVKFNDDIVSPEGRDLLKKMLEVDPKKRVTAADALRHSFLTSVDAQLSLKEAPALWREKVKECLEGGTQAVPMGAPFLALDDDEEEEEEEEDVDMNMATL” here?
Answer: The value was “not soluble”.

Question: With “MRGPAPMPDTSLSTFLARPAPTILVEIEAVKGSSPREAGTFMLVSQEALWETIGGGQFEYMAIDHARAMLRTGAAEDRMDIPLGPEIGQCCGGRTLIRFRLITAEIAATLEARLKGEAEQQPAVFIFGAGHVGKALADALSLLPLTLKVVETRESELRDIPAGIASILTPMPEAFVQKIPANGAAIIVTHDHALDFLIAKEALARDDLAYVGMIGSKTKRATFAHWLEREGEPPSRLAKLTLPIGGTGVRDKRPAVIAALVAAELLQAFSVAETRRSENRHDHPQGQDRA” as the sequence, how does the “soluble on expression in E. coli” value read?
Answer: Its value is “not soluble”.

Question: Which “soluble on expression in E. coli” value does the source give for “MIDVHCHLVDNKFKEDLDDVIGHAHATGIQKMINFPEFESQFEKSIGISKKWPGSVYTGIGIHPIQKRGKSAKMKHISKMEQFFVEHERDIICVGECGLDHTISQFKLTTEDFEEQETVFKWQIDLAKHFEKPLNVHSRSAARRTIEILLECHVAPDQVVLHAFDGTPGDLKLGLEAGYLFSIPPSFGKSEETTQLIESIPLSQLLLETDSPALGPEKGCKNVPANLRISAEIVAKIKKLEIDDIISATSTNANRIFKF” here?
Answer: The value was “soluble”.

Question: For “MSLDGVLISSREAIAAAWSRVAGEQGVALGPDCLRDHVHGRPGGYTLDYLFGHLPMERRRILKQRVDALEEGADCPLLPGVAAVIRQLRWLDVPLALVTSSWPARIDHVLRQHDLQAAFRTLVSRDDVVHGKPAPDGYRLAAARLGVAPSRCLVFEDSLSGVQAACAAGATCVAIGEESGLLAAGARWSVRDFRELRIVREDDRLYCQHRHPATTGSERSVGVPEGHHHHHH”, which “soluble on expression in E. coli” value is on record?
Answer: Its value is “not soluble”.

Question: For “MAHHHHHHMCLGRSSGSALDTPLGAWWGGKRVAEIPPCPAESVTFVQLIARHFSPFVLRQHLPGAQDGLVTSSVQTREVAHKPVGCDVAVLVVVKRGAQVLRLPFARPHAKIPQKINKKLVRHALLTTRPLLLLQLKELSQCLNDRLWAAPTTQGALHTQKHAILARVVRVTPQHRRHRTTKAKQQQQQKQRNCSLVKSAHKT”, which “soluble on expression in E. coli” value is on record?
Answer: Its value is “not soluble”.

Question: With “MSERLESRLAKVPKVTPEDIGNWLAEAETESELTEELNANAVFYLALSFAYESIAADAARYFSYTDGEESVDKSMIFANYKKLSADALKKYRKYRRGKGTHQTFAKRADGR” as the sequence, how does the “soluble on expression in E. coli” value read?
Answer: Its value is “not soluble”.

Question: For “MGSDKIHHHHHHDKLDLSPIDYYGSGSYWKTEAQATAYIDGIHKHLRDAAWQHTITFGELRGGRFITGASSDGMGVSNGDIILQNFDETHTGVSKFGDLFGRITNLNLFIARVTDATYLSDEMKNFYLGEVYGLRAFYYFDLYRIYGGVPLRLTADVVEGVIDPNKLYMARSTPKEVMTQIKSDLNKSMEYFGNMNDFDPYKRGKKVYWSKAATECLMGEVYLWTSKVTTGDDVANPADLTIAKTHLESVLNNYNLKMLDDFSQVFNAKNKANDEIIFAIRFLEGEATNSNGTFTYNVGTGSTKNRYQANGEVFGDALDIQNTGNQTYEYNKAVYQNFDDADTRKEATFIASYNKDGKTGELSLYGTHVRKNIGYVNAQGARVYCGDYIFYRLPWVYLTLAEIANMEGDNAAVAKYINLVRKRAYGNAWDETLYAYPETADFTTNELAILHEKDKEFIQEGQRWWDLRRMTLTKGGTPLVFCKEGSLLGDAPILNKSTEAHKLLWPIEKTMLNKDPALEQTPGYK”, which “soluble on expression in E. coli” value is on record?
Answer: Its value is “not soluble”.

Question: With “MSLSDPTNNKPAPVLRESATFDRLTIQEIQRAAETGIYDIRGGGTKRKLPHFDDLLLLGASVSRYPLEGYREKCGTDVVLGNRFAKKPLYLKIPVTIAGMSFGALSANAKEALGRGATIAGTSTTTGDGGMTPEERGQSQHLVYQYLPSRYGMNPDDLRKADAIEIVLGQGAKPGGGGMLLGMKVTERVAGMRTLPVGVDQRSACRHPDWTGPDDLAIKIAEIREITDWEKPIYVKIGASRPYYDVKLAVKAGADVIVLDGMQGGTAATQEVFIEHVGIPILPAIPQAVQALQEMGMHRKVQLIVSGGIRNGADVAKAMALGADAVAIGTAALIALGDNHPRLDEELKKIGSAAGFYDDWQNGRDPAGITTQDPELSKRLDPVEGGRRLANYLRVLVLEAQTMARACGKSHLHNLDPEDLVALTVESAAMARVPLAGTSWIPGSGSKGIITITTDPNSSSVDKLAAALEHHHHHH” as the sequence, how does the “soluble on expression in E. coli” value read?
Answer: The value was “soluble”.

Question: Which “soluble on expression in E. coli” value does the source give for “MAREVKLTKAGYERLMQQLERERERLQEATKILQELMESSDDYDDSGLEAAKQEKARIEARIDSLEDILSRAVILEEGSGEVIGLGSVVELEDPLSGERLSVQVVSPAEANVLDTPMKISDASPMGKALLGHRVGDVLSLDTPKGRREFRVVAIHG” here?
Answer: The value was “soluble”.

Question: Which “soluble on expression in E. coli” value does the source give for “MGSDKIHHHHHHMEQTTQTQLVEIQQVVLRMSKYFVAFCEEHNLTCYFCGGGCIGAIRSQGFIPWDDDLDFFMPRPDYEKLKVLWPKYADTECYPLLVASKTYNDHNSFMTIRDAQTTFIKTYQDGLAIPHGIPIDIFPLDGAPKGNFQRKKQKIWALIYALFCSQVVPEKHGGILATGSRVLLNIFPSKKVRYHIWRFAEKRMTKYSFGSTPYVTELCVGPRYMGNIYHLEDFKSAIFVPFEDTKMPIPVGYKRYLTEVFGDYMQLPPEEDRQPHHEALIVDTKKSYTEYLKK” here?
Answer: Its value is “not soluble”.

Question: With “MGSDKIHHHHHHMEKFDVIVVGGGPAGLSAAISAAQAGMKTAVIERGDYPGTKNVMGGVLYTEATNEVVPDFWKEAPLERPVIEQRYAFLSKDEILSAGYRDPAWGQPPYNAHTVLRVKFDRWLADQAVKAGVMIITETLVEDLLYHGDDVVGVRTGRAEGDLGAQVVILAEGANNFLACKAGLAKPLRPENMAVVVKEIIELPPEKIEDRFCLEPHEGATIELFGDSTDGMMGTSFIYTNKNSLSIGVGAMVHSMSEKGWSPNDLLENLKAKPYVKRLLQGGETKEYLAHLIPEGGYNAIPKLYRQGVMVVGDTAMFVNGLNREGSNLAMISGKIAGKVAAEAIQSGDLSAHGMSVYESRLRDSFVIKDLYKFRKLMPFIESNPHLLGQYPEILNQAARMYFTADGTPKAQVFSNIMDMMFKKRTKTGLVKDMFNAWRALK” as the sequence, how does the “soluble on expression in E. coli” value read?
Answer: Its value is “not soluble”.

Question: Which “soluble on expression in E. coli” value does the source give for “MGSDKIHHHHHHMRSIADQYNVSTNSVSRRILALGKQTMPAYDGLPQTLCIDEFRSTSNQMSFITIDGQKHDIITILPGRQTNEIKQFFLNHYSLKNREQVTQVVMDLNAQYQTFIHYLFPNAKLIVDNFHLVQMALRALNQTRVQLMKKYHPNTPEYWVLKSYWRLYLMNYEALEKSQPQWFSHLRNRLTQEQLIWSGLNLSHEFENTYFTAHKLVEAFRSRDYAAFTATLDEVENVSPQLFTTIKTFIKNKKLIQNMTSSTLSNGPIEGVNRKIKQIKRTAYGYRNWKNFVFRIQIEFKIRLKKRNPVRK” here?
Answer: Its value is “not soluble”.

Question: For “INKINLNKPIIENKNNVDVSIKRYNNFVDIARLSIQKHFEHLSNDQKDSHVNNMEYMQKFVQGLQENRNISLSKYQENKAVMDLKYHLQKVYANYLSQEEN”, which “soluble on expression in E. coli” value is on record?
Answer: Its value is “soluble”.

Question: With “MSLTQSHHDHVEKQFSSQASEYLTSTVHASGRDLQRLAVRLADYPDASVLDMGCGAGHASFVAAQNVSTVVAYDLSAHMLDVVAQAAEARQLKNITTRQGYVESLPFADNAFDIVISRYSAHHWHDVGAALREVNRILKLGGKLIVMDVMSPGHPVRDIWLQTVEALRDISHTRNYASGEWLTLISEANLIVDNLITDKLPLEFSSWVARMRTPEALVDAIRIYQQSASTEVKTYFALQNEGHHHHHH” as the sequence, how does the “soluble on expression in E. coli” value read?
Answer: Its value is “not soluble”.

Question: With “MSLKTTFLEFEQPIAELEAKIEELRFVQDDSAVDISEEISRLAAKSQQLTKDLYATLSPWQVAQIARHPQRPYTLDYVREIFTDFHELHGDRTFADDLSIVGGLARFNGQPCMVIGHQKGRDTKERALRNFGMSKPEGYRKAKRLMELADKFGLPIFTFVDTPGAFPGIEAEERGQSEAIGHNLFVMAGLKVPLIATIIGEGGSGGALAIAVGDSVIMLQFATYAVISPEGCASILWKTAEKAPEAAEALGLTAHRLKALGLIDKIVNEPLGGAHRDPKAMATMLKRALAESLRQFQGMKTSELQARRHERLMAYGKFKETGSNEGHHHHHH” as the sequence, how does the “soluble on expression in E. coli” value read?
Answer: The value was “not soluble”.

Question: Which “soluble on expression in E. coli” value does the source give for “MQRMGMVIGVKPEMIAEYKRLHAAVWPEVLALISESNIRNYTIFLREPENLLFGYWEYHGSDFSADMAKIAASPKNQEWWSFTIPCQQPLESRKEGEWWAMMEETFHLD” here?
Answer: The value was “not soluble”.

Question: Which “soluble on expression in E. coli” value does the source give for “MGSDKIHHHHHHMEIIAHRGFWNKESEKNTLTAIKRAIDNGYGFETDYRDNNGTIVISHNMPLGNEPTAEEIFRLYRDSGTESTLALNIKADGLQELLKDMLNTYQIKKYFLFDMSIPDTIDYILDNMNIATRHSEYEKEFPFYSQSSYVWMDCFKSEWISWGNLEEHLKSGKKVCIVSPELHRRPYKEVWNKYASFNHANLMLCTDFPMEADFFFNK” here?
Answer: Its value is “not soluble”.
